Test results: US20140087995A1 (published 2014)
Numbered stars: 1 amine (or outer) side, 2 acyl side, 3 side chain; on linkers, the order of the positions; unused ones are H or OH. Bridge positions count the residues as written; N and C are the ends. Side chains are listed from the residue outwards. Ends that are not written are not given here. * marks the point of attachment. C20 diacid = O=C(O)CCCCCCCCCCCCCCCCCCC(=O)*; γGlu = O=C(O)[C@H](CCC(=O)[*:2])N[*:1]

T1: human calcitonin receptor (human, UniProt P30988 25-474)
T1 sequence (looked up): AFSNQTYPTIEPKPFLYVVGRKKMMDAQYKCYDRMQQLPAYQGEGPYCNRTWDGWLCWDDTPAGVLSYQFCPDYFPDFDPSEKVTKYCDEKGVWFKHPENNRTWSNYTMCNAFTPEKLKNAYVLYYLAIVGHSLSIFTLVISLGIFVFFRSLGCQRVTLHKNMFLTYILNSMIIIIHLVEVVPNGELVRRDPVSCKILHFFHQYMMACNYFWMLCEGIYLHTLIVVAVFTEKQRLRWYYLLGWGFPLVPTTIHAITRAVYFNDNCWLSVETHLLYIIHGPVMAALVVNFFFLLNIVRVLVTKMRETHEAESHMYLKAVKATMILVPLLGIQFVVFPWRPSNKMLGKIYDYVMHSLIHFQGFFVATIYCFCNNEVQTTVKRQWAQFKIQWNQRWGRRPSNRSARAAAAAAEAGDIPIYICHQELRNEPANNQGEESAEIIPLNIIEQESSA

B1: N^ε1-[(4S)-4-carboxy-4-(19-carboxynonadecanoylamino)butanoyl]-[Asp14,Arg17,Pro21,Pro27,Pro34,Arg35]-h-amylin (peptide)
peptide: K([γGlu-C20 diacid])CNTATCATQRLADFLRHSSPNFGAIPSSTNVGPRTY-NH2
modifications: disulfide 2-7; N-terminus assumed
SMILES: CC[C@H](C)[C@H](NC(=O)[C@H](C)NC(=O)CNC(=O)[C@H](Cc1ccccc1)NC(=O)[C@H](CC(N)=O)NC(=O)[C@@H]1CCCN1C(=O)[C@H](CO)NC(=O)[C@H](CO)NC(=O)[C@H](Cc1c[nH]cn1)NC(=O)[C@H](CCCNC(=N)N)NC(=O)[C@H](CC(C)C)NC(=O)[C@H](Cc1ccccc1)NC(=O)[C@H](CC(=O)O)NC(=O)[C@H](C)NC(=O)[C@H](CC(C)C)NC(=O)[C@H](CCCNC(=N)N)NC(=O)[C@H](CCC(N)=O)NC(=O)[C@@H](NC(=O)[C@H](C)NC(=O)[C@@H]1CSSC[C@H](NC(=O)[C@@H](N)CCCCNC(=O)CC[C@H](NC(=O)CCCCCCCCCCCCCCCCCCC(=O)O)C(=O)O)C(=O)N[C@@H](CC(N)=O)C(=O)N[C@@H]([C@@H](C)O)C(=O)N[C@@H](C)C(=O)N[C@@H]([C@@H](C)O)C(=O)N1)[C@@H](C)O)C(=O)N1CCC[C@H]1C(=O)N[C@@H](CO)C(=O)N[C@@H](CO)C(=O)N[C@H](C(=O)N[C@@H](CC(N)=O)C(=O)N[C@H](C(=O)NCC(=O)N1CCC[C@H]1C(=O)N[C@@H](CCCNC(=N)N)C(=O)N[C@H](C(=O)N[C@@H](Cc1ccc(O)cc1)C(N)=O)[C@@H](C)O)C(C)C)[C@@H](C)O
notes: synthetic peptide amide
B2: N^ε1-[(4S)-4-carboxy-4-(19-carboxynonadecanoylamino)butanoyl]-[Glu14,Arg17,Pro21,Pro27,Arg34,Glu35]-h-amylin (peptide)
peptide: K([γGlu-C20 diacid])CNTATCATQRLAEFLRHSSPNFGAIPSSTNVGRETY-NH2
modifications: disulfide 2-7; N-terminus assumed
SMILES: CC[C@H](C)[C@H](NC(=O)[C@H](C)NC(=O)CNC(=O)[C@H](Cc1ccccc1)NC(=O)[C@H](CC(N)=O)NC(=O)[C@@H]1CCCN1C(=O)[C@H](CO)NC(=O)[C@H](CO)NC(=O)[C@H](Cc1c[nH]cn1)NC(=O)[C@H](CCCNC(=N)N)NC(=O)[C@H](CC(C)C)NC(=O)[C@H](Cc1ccccc1)NC(=O)[C@H](CCC(=O)O)NC(=O)[C@H](C)NC(=O)[C@H](CC(C)C)NC(=O)[C@H](CCCNC(=N)N)NC(=O)[C@H](CCC(N)=O)NC(=O)[C@@H](NC(=O)[C@H](C)NC(=O)[C@@H]1CSSC[C@H](NC(=O)[C@@H](N)CCCCNC(=O)CC[C@H](NC(=O)CCCCCCCCCCCCCCCCCCC(=O)O)C(=O)O)C(=O)N[C@@H](CC(N)=O)C(=O)N[C@@H]([C@@H](C)O)C(=O)N[C@@H](C)C(=O)N[C@@H]([C@@H](C)O)C(=O)N1)[C@@H](C)O)C(=O)N1CCC[C@H]1C(=O)N[C@@H](CO)C(=O)N[C@@H](CO)C(=O)N[C@H](C(=O)N[C@@H](CC(N)=O)C(=O)N[C@H](C(=O)NCC(=O)N[C@@H](CCCNC(=N)N)C(=O)N[C@@H](CCC(=O)O)C(=O)N[C@H](C(=O)N[C@@H](Cc1ccc(O)cc1)C(N)=O)[C@@H](C)O)C(C)C)[C@@H](C)O
notes: synthetic peptide amide

Biological target: T1, human calcitonin receptor
Assay: cell-based or functional assay

Binder	hCTR funct. EC50 (pM)
B1	3640
B2	2740
